Literature values, collected in publication PMC5497954.

Molecular target: IL2Rβγ (Homo sapiens) (UniProt P14784)
Sequence of UniProt P14784 (P14784 27-240, chain 1 of 2): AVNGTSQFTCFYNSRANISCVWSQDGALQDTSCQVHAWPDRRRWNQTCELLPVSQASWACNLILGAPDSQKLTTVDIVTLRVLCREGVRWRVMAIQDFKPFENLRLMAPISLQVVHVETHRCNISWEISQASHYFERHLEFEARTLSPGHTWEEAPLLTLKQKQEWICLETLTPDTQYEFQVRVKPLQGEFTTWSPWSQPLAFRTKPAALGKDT
Sequence of UniProt P14784 (P31785 23-262, chain 2 of 2, further chain): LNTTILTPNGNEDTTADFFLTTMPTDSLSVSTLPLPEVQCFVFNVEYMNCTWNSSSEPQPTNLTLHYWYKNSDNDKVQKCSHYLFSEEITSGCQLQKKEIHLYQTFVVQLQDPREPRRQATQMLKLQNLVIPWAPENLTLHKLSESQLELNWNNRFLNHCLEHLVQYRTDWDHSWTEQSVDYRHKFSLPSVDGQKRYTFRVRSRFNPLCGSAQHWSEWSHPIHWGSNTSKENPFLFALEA

Kd: 1 nM
Substance: IL2 (from UniProt P60568)
